From US20130142788A1 (published 2013)

Key:
[1] = target: T1, recombinant mature dimeric myostatin (human and mouse (mature sequences 100% …, UniProt O08689 268-376)); experiment: ActRIIb receptor neutralisation ELISA: antibody pre-incubated with 2 nM biotinylated myostatin, binding to coated ActRIIb
T1 construct: also called GDF-8; mature myostatin
T1 sequence: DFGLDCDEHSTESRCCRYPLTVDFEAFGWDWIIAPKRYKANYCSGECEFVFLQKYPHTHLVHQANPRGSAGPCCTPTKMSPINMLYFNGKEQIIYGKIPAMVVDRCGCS
Method: Recombinant soluble ActRIIb (R&D Systems 339-RBB) was coated in wells of an ELISA plate at 1 μg/ml in carbonate buffer overnight at 4° C. Plates were blocked (see Block solution above at 2.3) and washed following standard ELISA protocols. In parallel, 2 nM biotinylated myostatin (in-house, as described in 1.1, biotinylated material) was pre-incubated with an antibody dilution series consisting of 10B3, 10B3C, and a negative control (IgG1 isotype control) for 2 hours at 37° C. The biotinylated myostatin:antibody reactions were then added to the ActRIIb coated plate for 1 hour at 37° C. Standard wash procedures were followed prior to addition of 1:1000 diluted streptavidin-HRP conjugate (Dako P0397) and a further 37° C. incubation for 1 hour. Plates were again washed and assayed at absorbance 490 nm following OPD substrate (Sigma) and acid stop solution treatment. Inhibition curves and IC50 values for the inhibition of myostatin activity are shown in FIG. 5 and Table 8 respectively.

[2] = target: T1, recombinant mature dimeric myostatin; experiment: ActRIIb neutralisation ELISA: inhibition of 2 nM biotinylated myostatin binding to coated ActRIIb
Procedure, shortened: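 Soluble ActRIIb coated at 1 μg/ml; 2 nM biotinylated myostatin pre-incubated 30 min at 37° C with antibody dilution series, then bound to plate 1 h at 37° C. Bound myostatin detected with streptavidin-HRP, absorbance at 490 nm after acid stop.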

[3] = target: T1, recombinant mature dimeric myostatin; experiment: Kinexa solution phase affinity
Method: Kinexa (Sapidyne Instruments) solution phase affinity was used to determine the overall affinity for a range of anti-myostatin molecules. Myostatin beads were prepared either by adsorption (polymethylmethacrylate beads-PMMA) or amine coupling (NHS-activated sepharose beads). The range of anti-myostatin molecules studied necessitated the generation of beads coated with different concentrations of myostatin. For the solution phase portion of the assay, a fixed concentration of antibody was incubated with a broad range of myostatin concentrations and allowed to reach equilibrium by incubation at r.t. for at least 2 h before analysis proceeded. The myostatin beads were then used to determine the amount of free antibody present in the solution phase samples, by means of the free antibody binding to the myostatin bead matrix then detected using an appropriate secondary antibody (either anti-human or anti-mouse depending on the construct being tested) labelled with a fluorescent dye. The binding curves where fitted using the Kinexa Pro analysis software inherent to the machine. Multiple runs using varying starting concentrations of antibody were then compiled and analysed using the n-curve analysis software to give a more accurate determination of affinity.

[4] = target: T1, recombinant mature dimeric myostatin; experiment: BIAcore T100 SPR, antibody captured on anti-mouse IgG, myostatin analyte, all curves 1:1 model
Method: The affinity of 10B3 mouse parental and 10B3C for recombinant myostatin was assessed by BIAcore™ (surface plasmon resonance) analysis. Analysis was carried out by the use of a capture surface: anti-mouse IgG was coupled to a C1 chip by primary amine coupling for 10B3 mouse parental; and a protein A surface was created on a C1 chip by primary amine coupling for 10B3 chimera.
After capture, recombinant myostatin was passed over the surface at 64 nM, 16 nM, 4 nM, 1 nM, 0.25 nM and 0.0625 nM, with a buffer injection (i.e. 0 nM) used for double referencing. There was a regeneration step between each analyte injection, after which the new antibody capture event occurred before the next injection of myostatin. The data was analysed using both the 1:1 model and the Bivalent model inherent to the T100 machines analysis software (see Table 6). Both capture surfaces could be regenerated using 100 mM phosphoric acid, the work was carried out using HBS-EP as the running buffer and using 25° C. as the analysis temperature.

[5] = target: T2, human myostatin pro-peptide dimer (human, UniProt O14793 25-266, limits assumed); experiment: ELISA, antigen coated at 100 ng/well
T2 sequence: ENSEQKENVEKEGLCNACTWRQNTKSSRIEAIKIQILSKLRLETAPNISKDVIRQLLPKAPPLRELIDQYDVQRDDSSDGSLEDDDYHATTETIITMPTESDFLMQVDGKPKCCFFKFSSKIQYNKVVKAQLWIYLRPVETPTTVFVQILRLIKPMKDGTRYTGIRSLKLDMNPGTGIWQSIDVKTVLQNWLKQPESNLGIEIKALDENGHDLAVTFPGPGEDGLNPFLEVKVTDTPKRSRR
Method: The myostatin antigens were coated onto wells of an EIA/RIA plate (Costar) at 100 ng/well at 4° C. overnight in PBS, prior to blocking (PBS, 3% BSA) for 30 minutes at room temperature. Plates were washed (PBS, 1% BSA and 0.1% Tween20), prior to the addition of a dilution series of 10B3 in wash buffer and incubation for 2 hours at room temperature. Plates were again washed prior to addition of peroxidase-conjugated Affinipure F(ab′)2 fragment donkey anti-mouse IgG (Jackson Laboratories cat 715-036-151) diluted 1:10,000 in wash buffer and incubated for 1 hour at room temperature. A final wash step preceded addition of TMB substrate and colorimetric change which was stopped with Sulphuric acid and plates read at 450 nm.

IC50 [1]: 0.132 mg/L
IC50 [2]: 0.172 nM
Kd [3]: 0.205 nM
Kd [4]: 1 nM
binding result [5]: no binding
B1: mouse monoclonal antibody 10B3 (antibody, mouse IgG2a, V domains shown)
VH: EVQLQQSGPELVKPGASVKISCKASGYSFTGYFMHWVKQSHGNILDWIGNIYPYNGVSNYNQRFKAKATLTVDKSSSTAYMELRSLTSEDSAVYYCARRYYYGTGPADWYFDVWGTGTTVTVSS
VL: DIKMTQSPSSMYASLRERVTITCKASQDINSYLSWFQQKPGKSPKTLIYRANRLVDGVPSRFSGSGSGQDYSLTISSLEYEDMGIYYCLQCDEFPLTFGAGTKLELK
notes: Murine IgG2a/k; also called 10B3 mouse parental; parental 10B3
